Assay results reported in US20190169289A1 (Scripps Research, published 2019).
Read-outs that look alike come from different tables or passages of the source. Ends that are not written are not given here.

B1: anti-CD22 (clone hLL2) IgG HCCT switch (antibody)
light: DIQLTQSPSSLSASVGDRVTMSCKSSQSVLYSANHKNYLAWYQQKPGKAPKLLIYWASTRESGVPSRFSGSGSGTDFTFTISSLQPEDIATYYCHQYLSSWTFGGGTKLEIKRTVAAPSVFIFPPSDEQLKSGTASVVCLLNNFYPREAKVQWKVDNALQSGNSQESVTEQDSKDSTYSLSSTLTLSKADYEKHKVYACEVTHQGLSSPVTKSFNRGEC
heavy: QVQLVQSGAEVKKPGSSVKVSCKASGYTFTSYWLHWVRQAPGQGLEWIGYINPRNDYTEYNQNFKDKATITADESTNTAYMELSSLRSEDTAFYFCARRDITTFYWGQGTTVTVSSARTKGPSVFPLAPSSKSTSGGTAALGCLVKDYFPEPVTVSWNSGALTSGVHTFPAVLQSSGLYSLSSVVTVPSSSLGTQTYICNVNHKPSNTKVDKKVEPKSCDKTHTCPPCPAPPVAGPSVFLFPPKPKDTLMISRTPEVTCVVVDVSHEDPEVKFNWYVDGVEVHNAKTKPREEQYNSTYRVVSVLTVLHQDWLNGKEYKCKVSNKGLPSSIEKTISKAKGQPREPQVYTLPPSRDELTKNQVSLTCLVKGFYPSDIAVEWESNGQPENNYKTTPPVLDSDGSFFLYSKLTVDKSRWQQGNVFSCSVMHEALHNHYTQKSLSLSPGKGGGGSNYHLENEVARLKKL
B2: anti-CD22 (clone hLL2) Fab CTBV2 switch (2 GGGGS linker) (Fab)
light: DIQLTQSPSSLSASVGDRVTMSCKSSQSVLYSANHKNYLAWYQQKPGKAPKLLIYWASTRESGVPSRFSGSGSGTDFTFTISSLQPEDIATYYCHQYLSSWTFGGGTKLEIKRTVAAPSVFIFPPSDEQLKSGTASVVCLLNNFYPREAKVQWKVDNALQSGNSQESVTEQDSKDSTYSLSSTLTLSKADYEKHKVYACEVTHQGLSSPVTKSFNRGECGGGGSGGGGSNYHLENEVARLKKL
heavy: QVQLVQSGAEVKKPGSSVKVSCKASGYTFTSYWLHWVRQAPGQGLEWIGYINPRNDYTEYNQNFKDKATITADESTNTAYMELSSLRSEDTAFYFCARRDITTFYWGQGTTVTVSSARTKGPSVFPLAPSSKSTSGGTAALGCLVKDYFPEPVTVSWNSGALTSGVHTFPAVLQSSGLYSLSSVVTVPSSSLGTQTYICNVNHKPSNTKVDKKVEPKSCGGGGSGGGGSNYHLENEVARLKKL
B3: anti-CD22 (clone hLL2) Fab CTBV3 switch (3 GGGGS linker) (Fab)
light: DIQLTQSPSSLSASVGDRVTMSCKSSQSVLYSANHKNYLAWYQQKPGKAPKLLIYWASTRESGVPSRFSGSGSGTDFTFTISSLQPEDIATYYCHQYLSSWTFGGGTKLEIKRTVAAPSVFIFPPSDEQLKSGTASVVCLLNNFYPREAKVQWKVDNALQSGNSQESVTEQDSKDSTYSLSSTLTLSKADYEKHKVYACEVTHQGLSSPVTKSFNRGECGGGGSGGGGSGGGGSNYHLENEVARLKKL
heavy: QVQLVQSGAEVKKPGSSVKVSCKASGYTFTSYWLHWVRQAPGQGLEWIGYINPRNDYTEYNQNFKDKATITADESTNTAYMELSSLRSEDTAFYFCARRDITTFYWGQGTTVTVSSARTKGPSVFPLAPSSKSTSGGTAALGCLVKDYFPEPVTVSWNSGALTSGVHTFPAVLQSSGLYSLSSVVTVPSSSLGTQTYICNVNHKPSNTKVDKKVEPKSCGGGGSGGGGSGGGGSNYHLENEVARLKKL
B4: anti-CD22 (clone hLL2) Fab CTBV switch (Fab)
light: DIQLTQSPSSLSASVGDRVTMSCKSSQSVLYSANHKNYLAWYQQKPGKAPKLLIYWASTRESGVPSRFSGSGSGTDFTFTISSLQPEDIATYYCHQYLSSWTFGGGTKLEIKRTVAAPSVFIFPPSDEQLKSGTASVVCLLNNFYPREAKVQWKVDNALQSGNSQESVTEQDSKDSTYSLSSTLTLSKADYEKHKVYACEVTHQGLSSPVTKSFNRGECGGGGSNYHLENEVARLKKL
heavy: QVQLVQSGAEVKKPGSSVKVSCKASGYTFTSYWLHWVRQAPGQGLEWIGYINPRNDYTEYNQNFKDKATITADESTNTAYMELSSLRSEDTAFYFCARRDITTFYWGQGTTVTVSSARTKGPSVFPLAPSSKSTSGGTAALGCLVKDYFPEPVTVSWNSGALTSGVHTFPAVLQSSGLYSLSSVVTVPSSSLGTQTYICNVNHKPSNTKVDKKVEPKSCGGGGSNYHLENEVARLKKL
B5: anti-CD22 (clone hLL2) IgG CTBV switch (antibody)
light: B4 light
heavy: B1 heavy
B6: anti-CD22 (clone hLL2) IgG LCCT switch (antibody)
light: B4 light
heavy: QVQLVQSGAEVKKPGSSVKVSCKASGYTFTSYWLHWVRQAPGQGLEWIGYINPRNDYTEYNQNFKDKATITADESTNTAYMELSSLRSEDTAFYFCARRDITTFYWGQGTTVTVSSARTKGPSVFPLAPSSKSTSGGTAALGCLVKDYFPEPVTVSWNSGALTSGVHTFPAVLQSSGLYSLSSVVTVPSSSLGTQTYICNVNHKPSNTKVDKKVEPKSCDKTHTCPPCPAPPVAGPSVFLFPPKPKDTLMISRTPEVTCVVVDVSHEDPEVKFNWYVDGVEVHNAKTKPREEQYNSTYRVVSVLTVLHQDWLNGKEYKCKVSNKGLPSSIEKTISKAKGQPREPQVYTLPPSRDELTKNQVSLTCLVKGFYPSDIAVEWESNGQPENNYKTTPPVLDSDGSFFLYSKLTVDKSRWQQGNVFSCSVMHEALHNHYTQKSLSLSPGK

Key:
[1] = target: T1, CD22 (UniProt P20273 20-847, limits assumed); assay: cell-based or functional assay
[2] = target: T1, CD22; assay: cell-based or functional assay; remark: listed apart in the source
[3] = target: T2, anti-GCN4 (52SR4 scFv) sCAR with CD8 hinge; assay: flow cytometry of CD8 sCAR T cells stained with AF488-conjugated PNE; filled histogram against a dashed control histogram
T2 construct: 273 is the protein without leader; also called sCAR (long); CD8 sCAR

[4] = target: T3, anti-GCN4 (52SR4 scFv) sCAR with IgG4m hinge; assay: flow cytometry competition on CAR-T cells with the GCN4 CAR (SEQ ID NO. 74): 1 nM labelled GCN4 peptide (GCN4-AF488) as competitor, unlabelled peptide titrated, MFI of the labelled peptide read
T3 construct: disulfide dimer by western blot; also called short-dimeric sCAR; IgG4m sCAR
T3 chain: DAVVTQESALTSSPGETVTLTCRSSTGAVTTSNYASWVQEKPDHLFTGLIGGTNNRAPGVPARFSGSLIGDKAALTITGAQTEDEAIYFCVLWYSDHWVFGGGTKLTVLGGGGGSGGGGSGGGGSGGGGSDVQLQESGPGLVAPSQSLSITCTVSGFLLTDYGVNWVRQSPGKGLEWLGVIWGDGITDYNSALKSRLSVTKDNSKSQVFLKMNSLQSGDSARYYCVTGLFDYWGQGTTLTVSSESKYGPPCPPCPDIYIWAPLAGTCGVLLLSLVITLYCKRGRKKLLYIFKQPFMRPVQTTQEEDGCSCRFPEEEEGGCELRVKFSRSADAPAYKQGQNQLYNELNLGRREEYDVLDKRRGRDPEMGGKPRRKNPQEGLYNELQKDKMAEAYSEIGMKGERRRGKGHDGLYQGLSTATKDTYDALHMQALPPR
From the text: Un-labelled peptide binding efficiency was indirectly shown by measuring the mean fluorescence intensity (MFI) staining with the labelled peptide.
Cells were then washed twice with cold PBS to remove the free labelled peptide before being analyzed using the BD Accuri flow cytometer.

[5] = target: T1, CD22; assay: cell-based or functional assay; remark: listed apart in the source
[6] = target: T1, CD22; assay: cell-based or functional assay; remark: listed apart in the source
[7] = target: T1, CD22; assay: cell-based or functional assay; remark: listed apart in the source
[8] = target: T1, CD22; assay: cell-based or functional assay; remark: listed apart in the source

Binder | EC50 of cytotoxicity [1] | cytotoxicity at 0.06 pM [2] | cytotoxicity at 0.30 pM [2] | cytotoxicity at 1.52 pM [2] | cytotoxicity at 7.62 pM [2] | cytotoxicity at 38.10 pM [2] | cytotoxicity at 190.48 pM [2] | cytotoxicity at 4762.00 pM [2] | cytotoxicity at 0.01 pM [5] | cytotoxicity at 0.1 pM [5] | cytotoxicity at 10 pM [5] | cytotoxicity at 100 pM [5] | cytotoxicity at 1000 pM [5] | cytotoxicity at 10000 pM [5] | EC50 of cytotoxicity [6] | cytotoxicity at 952.40 pM [2] | other results
B1 | 0.0153 nM | 0.25 | -1.05 | -4.45 | 8.18 | 20.9 | 31.8 | 24.1 |  |  |  |  |  |  |  |  | 
NYHLENEVARLKKL (not fully specified, also called PNE) [yeast transcription factor GCN4 minimal binding peptide NYHLENEVARLKKL] |  |  |  |  |  |  |  |  |  |  |  |  |  |  |  |  | binding result [3]: binds; binding result [4]: binds
B2 |  |  |  |  |  |  |  |  | 7.08 | 2.9 | 22.1 | 45.8 | 45.8 | 46 | 0.0126 nM |  | 
B3 |  |  |  |  |  |  |  |  | 2.54 | 7.9 | 17 | 51.3 | 45.3 | 41.5 | 0.0149 nM |  | 
B4 | 0.0555 nM | -3.84 | -0.28 | -4.59 | 0.02 | 6.77 |  | 24.3 | 4.6 | 3.6 | 10.4 | 42.2 | 47.4 | 44.9 | 0.0288 nM | 21.7 | EC50 of cytotoxicity [7]: 0.0691 nM; cytotoxicity at 0.01 pM [8]: 1.34; cytotoxicity at 0.1 pM [8]: 0.18; cytotoxicity at 1 pM [8]: 1.38; cytotoxicity at 10 pM [8]: 4.1; cytotoxicity at 100 pM [8]: 28.2; cytotoxicity at 1000 pM [8]: 46.9; cytotoxicity at 10000 pM [8]: 44.2
B5 | 0.0347 nM | 4.45 | -3.82 | 5.34 | 7.92 |  | 29.8 | 38 |  |  |  |  |  |  |  | 28.6 | 
B6 | 0.0269 nM | -2.8 | -7.88 | -6.59 | 0.95 | 14.1 | 24.4 | 28.5 |  |  |  |  |  |  |  | 25.4 | 
